Assay results: patent US20100099601A1

Molecular target: Insulin-like Growth Factor Receptor (IGFR; Type I IGF receptor) (UniProt P08069)
Experiment: displacement of 125I-IGF-1 from IGFR

Kd: 3.14 nM
Relative Affinity (to IGF-1): 0.015 fold
fold affinity relative to human insulin: 2 to 3 fold
Substance: Lantus (insulin analogue with two additional Arg residues at the carboxy-terminal end of the B-chain) (ligand)
